Source: the nanobody polyreactivity screen of Harvey et al. (2022)

Experiment: yeast display, Sf9 membrane polyspecificity reagent, FACS + sequencing; frameworks hold sequencing errors
Method in brief: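 Synthetic nanobody libraries on Saccharomyces cerevisiae BJ5465 were galactose-induced for 36–48 hours, stained 1 hour at 4 °C with 10% biotinylated, detergent-solubilized Sf9 membrane reagent and enriched on streptavidin microbeads. FACS then separated cells into low and high (top ~1%) gates by anti-HA (expression) and streptavidin (reagent binding) fluorescence. Genes were colony-PCR amplified, MiSeq 2 × 250 sequenced and CDR-length filtered. A clone's polyreactivity label is that of its gate of origin.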

Row | Sequence | polyreactivity (PSR sort gate)
1 | QVQLVESGGGLVQGGGSLRLSCAASGFTFGRYTMGWYRQAPGKERELVAPISWSGGSTFYADSVKGRFTISRDNAQNTVYFQMNSLKPEDTAVYNCDTRLKSVSGGYNYWGQGTQVTVSS | high polyreactivity
2 | QVQLVESGGGLVQGGGSLRLSCAASGSIFPHNAMGWSRQAPGKERELVASITSRGGITYYADSVKGRFTISRDNAKNPLNLQMNSLKPEDTAVYYCAADLYIYPYDYWGQGTQVTVSS | low polyreactivity
3 | QVQLVESGGGLVQGGGSLRLSCAASGSIFTRNAMGWYRQAPGKEREFVAAISSSGVSTYYADSVKGRFTISRDNAKNTVYLQMNSLKPEDTALYYCAARWGTKSGRYDYWGQGTQVTVSS | high polyreactivity
4 | QVQLVESGGGLVQGGGSLRLSCASSGNTFYYYAMGWYRQAPGKERELVAAITRGGSTNYADSVKGRFTISRDNAKNTVYLEMISLKPEDTSVYYCAAEQRAPRFADYDYWGQGTQVTVSS | low polyreactivity
5 | QVQLVESGGGLVQLGGSLRLSCAASGSIIFSYAIGWSRQAPWKERELVADNRSSDDDTYYADSVKGRFTISRDNAQNTDYLDMNSLKPEDTGGYYCNADFGYWWDGRRYDYWVQGTQVTVSS | low polyreactivity
6 | QVQLVESGGGLVQPGCSLRLSCAASGSTFESYAMGWYRQAPGKERELVAAISWRVGSTYYADSVKGRFTISRDNAKNTVYLQMNSLKPEDNAVYYCASKGWYSHYGGYDYWGQGTQVTVSS | low polyreactivity
7 | QVQLVESGGGLVQPGGSLRLRCAASGSTLAYYTMGWSRHAPGKEMELVAAISGSGGSTYYADSVKGRFTIARDNAKNTVYLQMNSLKPEDSAVYYSIAVLYYYTSSEYDYWGQGTQVTVSS | high polyreactivity
8 | QVQLVESGGGLVQPGGSLRLSCAASGFIFGYYTMGWYRQAPGKERELVAVITSNGARTYYADSVKGRFTISRDNAKNTVYLQMNSLKPEDTAVYYCNAYRLSVSVGYDYWGQGTQVTVSS | high polyreactivity
9 | QVQLVESGGGLVQPGGSLRLSCAASGFIFRNYAMGWYRQAPGQERELVAAITRSGDNTYYADSVKGRFTISRDNAKNTVYLQMNSLKPEDTAVYYCAARDVQYQQALGGDYWGQGTQVTVSS | low polyreactivity
10 | QVQLVESGGGLVQPGGSLRLSCAASGFIFYYYAMGWYRQAPGKERELVAVLTESGSSTYYADSVKGRFTISRDNAKNTVYLQMNSLKPEDTAVYYCNADFWPYTGKYDYWGQGTQVTVSS | low polyreactivity
11 | QVQLVESGGGLVQPGGSLRLSCAASGFTFSKYAMGWYRQAPGKERELVAAISRSAGSTYYADSVKGRFTISRDNAKNTVYLQMNSLKPEDTAVYYCARDNPRRPSGYNYWGQGTQVTVSS | high polyreactivity
12 | QVQLVESGGGLVQPGGSLRLSCAASGIIFGSYAMGWYRQAPGKERELFAAITKSGGSTFYADSVKGRYTISRDNAKNTVYLQMNSLKPEDTAVYYCTAVKYRYLEYNYWGQGTQVTVSS | high polyreactivity
13 | QVQLVESGGGLVQPGGSLRLSCAASGIIFRYYAMGWYRQAPGKERELVAAITWSGGSTYYADSVKGRFTISRDNAKNTVYLQMNRLKPEDTAVFDCAADWWSVRGYAVDYWGQGTQVTVSS | high polyreactivity
14 | QVQLVESGGGLVQPGGSLRLSCAASGRIFGYYVMGWYRQAPRKERELVAAITGGGGSTYYADSVKGRFTISRDNEKNTVFLQMNSLKPEDTAVYYCAADLEYTNYDYDYWGQGTQVTVSS | high polyreactivity
15 | QVQLVESGGGLVQPGGSLRLSCAASGRNSTYTMGWYRQAPGKERELVATISTDASTNYADSVKGRFTISRDNAKNTVYLQMNSLKPEDTAVYYCAAVIVNQDYDYWGQGTQVTVSS | low polyreactivity
16 | QVQLVESGGGLVQPGGSLRLSCAASGRTFRWYAMGWYRQEPGKERELVAAISAGGGSTYYADSVKGRFTISRDNAKYTVSLQLTRVKPEDTAVYYCNRVAWNYGFGSSAYGYWGQGTQVTVSS | high polyreactivity
17 | QVQLVESGGGLVQPGGSLRLSCAASGSIFAYNAMGWSRQAPGKERELVAAISSGGRTKYADSVKGRFTITRDNAKITVYFQMNRQKPEDTAVYYCAAESYTGKYSWVWKWYDYWGQGTQVSVSS | low polyreactivity
18 | QVQLVESGGGLVQPGGSLRLSCAASGSIFPRNAMGWYRKAPGKERELVAGISYGGSTTYYADSVKGRFTISRDNAKNTVYLQMNSLKPEDTAVYYCAALQQYRRQTTYSSQLYYWGQGTQVTVSS | high polyreactivity
19 | QVQLVESGGGLVQPGGSLRLSCAASGSTFEYNAMGWYRQAPGKERELVASSTNYADSVKGRFTISRDNAKNTVYLQMNSLKPEDTAVYYCAREQGVNRNHDYWGQGTQVTVSS | low polyreactivity
20 | QVQLVESGGGLVQPGGSLRLSCAASGYTFWQYAMGWYRQAPGKERELVAAISGSGGRTYYADSVKGRFTISRDNAKNTVYLQMNSLKPEDTAVYYCAAPYLRYYLGWYDYWGQGTQVTVSS | high polyreactivity
21 | QVQLVESGGGLVQSGASLRLSCAASGSIFDSYTMGWYRQAPGKEREWVAAISWSGGRTYYADSVKGRFTISRDNAKNTVYLQMNTLKPEDTAVYYCAARNVWKYLFGYDYWGQGTQVTVSS | high polyreactivity
22 | QVQLVESGGGLVQSGGSLRLSCAASGFIFLNYAMGWYRQAPGKERQLVAAITSGGNTTYADSVKGRFTISRDNAKNTVYLQMNSLKPEDTAVYYCAAEWASRYAVFWAYPKYDYWGQGTQVTVAS | low polyreactivity

Row | Sequence | polyreactivity (PSR sort gate)
23 | QVQLVESGGGLVQSGGSLRLSCAASGFTFSRYAMGWYRQAPGKERELVAAIRLRDGITYYADSVKVRFTISRDNAKNTVYLQMNSLKPEDTAVYYFNAVNRTPVSQLDYWGQGTQVTVSS | high polyreactivity
24 | QVQLVESGGGLVQSGGSLRLSCAASGIIFCRYAMGWYRQAPGKERELVATITWRGGSTYDADSVKGRFTISRDNAKNTVYLQMNSLKPEDTAVYYCAADNRQSRSFRARAYWGQGNQVTVSS | low polyreactivity
25 | QVQLVESGGGLVQSGGSLRLSCAASGLIFGRYAMGWYRQAPGKERELVAAISYSGARTYYADSVKGRFTISRDNEKNTVYLQMNSLKPEDTAVYYCAAGPAFRQSEWWKAYDYWGQGTQVTVSS | high polyreactivity
26 | QVQLVESGGGLVQSGGSLRLSCAASGLIFYDNMGWYIQAPGKERELVAAISSSGGSTSYADSVKGRFTISRDNAKNTVYLQMNSLKPEDTAVYYCAADSYPAYLGFVGFDYWGQGTQVTVSS | low polyreactivity
27 | QVQLVESGGGLVQSGGSLRLSCAASGNTFTFYAMGWYRQAPGKERELVAVISQIADGCTYYADSVKGRFTISRDNSKNSVYLQMNSLKPEDTAVYYCIAQTWDEYWGQGTQVTVSS | low polyreactivity
28 | QVQLVESGGGLVQSGGSLRLSCAASGRTFSKNAMGWYRQAPGKERELVAAISGSGGSTYYADSVKGRFTISRDNAKNTVYLQMNSLKPEDTAVYYCADRYTVRRSGYWGQGTQVTVSS | high polyreactivity
29 | QVQLVESGGGLVQSGGSLRLSCAASGSIFNLYAMGWYRQAPGKERELVAAINWSGGSTYYADSVNGRFTISRDNAKNTVYLQMNRLKPEDTAVSYCAADAYSTYYGYEGVYWGQGTQVTVSS | low polyreactivity
30 | QVQLVESGGGLVQSGGSLRLSCAASGSINVYYAMGLYRQEPGKERDLVAAISASGGSTYYADSVKGRFTISRDNAKNTFYLQMKSLKPEDTAVYYCAADTFYSYYDMDYWGQGTQVTVSS | low polyreactivity
31 | QVQLVESGGGLVQSGGSLRLSCAASGSNFITYAMGWYRQAPGKERELVAAIRDSGDRTYYADSVKGRFTISRDNAKNTVYLQMNSLKPEDTAVYYCNARWQEPLKYDYWGQGTQVTVSS | low polyreactivity
32 | QVQLVESGGGLVQSGGSLRLSCAASGSTFVSNAMGWYRQAPGKERELFAAINGSGGITYYADSVKGRFTISRDNAKNTVYLQMNSLKPEDTAVYYCAAEYDGPYTWVDYYYHYGYWGQGTEVTVSS | low polyreactivity
33 | QVQLVESGGGLVQSGGSLRLSCAASGSTSTSYVMGWYRQAPGKERELVAVITLRSGVTYYADSVKARFTISRDNPKYTVYLQMNSLKAEDTAVYYCNAATVVYTRVWRGYWGQGTHVTVSS | low polyreactivity
34 | QVQLVESGGGLVQSGGSLRLSCAASVIIFAWYAMGWYRQAPGKERELVAAITANSDSTYYADSVKGRFTISRDNAKNTVYLQMNSLKPEDTAVYDCAKRTYSRKFRGAYNYWGQGTQVTVSS | high polyreactivity
35 | QVQLVESGGGLVQSGGSLRLSCADSVRTFNYYAMGWYRQAPGKERELVATISWSGVSTRYADSVKGRFTISRDNEKNTVYLQMNSLKPEDTAVYYCNAGYSKRSFYSAYGYWGQGTQVTVSS | high polyreactivity
36 | QVQLVESGGGLVQSGGSLRLTCAASGYIFGYYTMGWYRQAPGKERELVATIRSGGSTYYADSVKGRFTISRDNAKNTVFLHMNSLKAEDTAVYYCAIRVRRISEYGYWGQGTQVTVSS | high polyreactivity
37 | QVQLVESGGGLVQSGRSLRLSCAASGSISVWYVMGWYRPAPGKEMELVAAITRSGGSTFYAYSVKGRFTISRDNAKNTVYLQMNSLKPEDTAVYYCAADGGVAWGYGYWGQGTQVTVSS | low polyreactivity
38 | QVQLVESGGGLVQTGGILRLSCAASGRIFYYNAMGWYRQEPGKERDFFAAITSSSGSSTYYADSVKGRFTISLDNAKNTVYLQMNSLKPEVTAVYYCAAVGTFIIRYLSRSSYWGQGTQVTVSS | low polyreactivity
39 | QVQLVESGGGLVQTGGSLRLSCAASGRIFFDNAMGWYRQAPGKERELVAGIDSGGSTYYADSVKGRFTISRDNAKNTVYLQMNSLKPEDTAVYYCNSDYPPSTQSPLLQSYDYWGQGTQVTVSS | low polyreactivity
40 | QVQLVESGGGLVQVGGSLRLSCAASGFTFYDYAMGWYRQAPGKERELVAAMSRGGSTYYADSVKGRFTISRDNAKNTVYLQMNSLKPEDTAVYYCNARPTRIYHGMGYWGQGTQVTVSW | low polyreactivity
41 | QVQLVESGGGLVQVGGSLRLSCAASGGIFSGNAMGWYRQAPGKERELVAGITNCGRTSYADSVKGRFTISRDNAKNTDYFQMNSLKPEDTAVYYCNAKVGAYLNYGYWGQGTQVTVSS | low polyreactivity
42 | QVQLVESGGGLVQVGGSLRLSCAASGITLSYYAMGWYRQAPGKERELVASITVSRTSTYYADSVKGRFTISRDNAKNTVYLQMNSLKPEDTAVYYCAAYAYQYRFSGYGYWGQGTQVTVSS | low polyreactivity
43 | QVQLVESGGGLVRAGGSLRLSCAASGSIFKYYAMGWYRQAPGKDRELVAAISWSGGSTFYADSVKGRFTISRDNAKNTVYLQMNSLKPEDTAVFYCARYKLRSGRSGDHDVYWGQGTQVTVSS | high polyreactivity
